Measurements taken from patent US20150359911, “Aptamer Specific to Integrin alpha-v-beta-3 and Use Thereof” (POSTECH ACADEMY-INDUSTRY FOUNDATION, published 2015).

Tests used:
Settings in all cases: tags: R&D Systems 3050-AV
Integrin alpha-v beta-3 [1] = target: T1, Integrin alpha-v beta-3 (UniProt P06756;P05106 P06756:31-992,P05106:27-718); assay: filter; Bmax 0.56; HEPES, NaCl, KCl, MgCl2 buffer, 37 C
Description: (§1) 20,000 cpm of the labeled DNA pool were put in 100 μL 1×SB buffer (200 mM HEPES, 510 mM NaCl, 25 mM KCl, 25 mM MgCl₂), and slowly cooled from 95° C. to 37° C. at a rate of 0.1° C./sec. And, integrin αᵥβ₃ (R&D systems, 3050-AV) was serially diluted to 12 points at 100 nM using buffer (200 mM HEPES, 510 mM NaCl, 25 mM KCl, 25 mM MgCl₂), and then, 30 μL of the above heated and cooled DNA pool was respectively added and reacted at 37° C. for 30 minutes. A nylon membrane (GE healthcare) was spotted with 2 μL of the complex of DNA and integrin αᵥβ₃, and then, 5.5 μL of zorbax resin (Agilent) was added thereto. And, it was put in a Durapore filter (Millipore) previously wetted with 50 μL of 1×SB buffer (200 mM HEPES, 510 mM NaCl, 25 mM KCl, 25 mM MgCl₂) and vacuum was applied. And, the membrane filter was washed with 100 μL of 1× selection buffer (200 mM HEPES, 510 mM NaCl, 25 mM KCl, 25 mM MgCl₂). The filter plate was exposed to an image plate overnight, and then, images were quantified with FLA-5100 (Fuji).
(§2) In order to examine binding affinity of clone having repeatedly observed base sequence, filter binding assay was conducted by the same method as pool binding assay. The binding affinity was calculated using SigmaPlot 11 (Systat Software Inc.) from the value obtained through the filter binding assay, and the results are shown in the following Table 4. […]

Integrin alpha-v beta-3 [2] = target: T1, Integrin alpha-v beta-3; assay: filter; Bmax 0.82; HEPES, NaCl, KCl, MgCl2 buffer, 37 C
Description: as §1, §2

Integrin alpha-v beta-3 [3] = target: T1, Integrin alpha-v beta-3; assay: filter; Bmax 0.69; HEPES, NaCl, KCl, MgCl2 buffer, 37 C
Description: as §1, §2

Integrin alpha-v beta-3 [4] = target: T1, Integrin alpha-v beta-3; assay: filter; Bmax 0.88; HEPES, NaCl, KCl, MgCl2 buffer, 37 C
Description: as §1, §2

T1 sequence (P06756 31-992, chain 1 of 2): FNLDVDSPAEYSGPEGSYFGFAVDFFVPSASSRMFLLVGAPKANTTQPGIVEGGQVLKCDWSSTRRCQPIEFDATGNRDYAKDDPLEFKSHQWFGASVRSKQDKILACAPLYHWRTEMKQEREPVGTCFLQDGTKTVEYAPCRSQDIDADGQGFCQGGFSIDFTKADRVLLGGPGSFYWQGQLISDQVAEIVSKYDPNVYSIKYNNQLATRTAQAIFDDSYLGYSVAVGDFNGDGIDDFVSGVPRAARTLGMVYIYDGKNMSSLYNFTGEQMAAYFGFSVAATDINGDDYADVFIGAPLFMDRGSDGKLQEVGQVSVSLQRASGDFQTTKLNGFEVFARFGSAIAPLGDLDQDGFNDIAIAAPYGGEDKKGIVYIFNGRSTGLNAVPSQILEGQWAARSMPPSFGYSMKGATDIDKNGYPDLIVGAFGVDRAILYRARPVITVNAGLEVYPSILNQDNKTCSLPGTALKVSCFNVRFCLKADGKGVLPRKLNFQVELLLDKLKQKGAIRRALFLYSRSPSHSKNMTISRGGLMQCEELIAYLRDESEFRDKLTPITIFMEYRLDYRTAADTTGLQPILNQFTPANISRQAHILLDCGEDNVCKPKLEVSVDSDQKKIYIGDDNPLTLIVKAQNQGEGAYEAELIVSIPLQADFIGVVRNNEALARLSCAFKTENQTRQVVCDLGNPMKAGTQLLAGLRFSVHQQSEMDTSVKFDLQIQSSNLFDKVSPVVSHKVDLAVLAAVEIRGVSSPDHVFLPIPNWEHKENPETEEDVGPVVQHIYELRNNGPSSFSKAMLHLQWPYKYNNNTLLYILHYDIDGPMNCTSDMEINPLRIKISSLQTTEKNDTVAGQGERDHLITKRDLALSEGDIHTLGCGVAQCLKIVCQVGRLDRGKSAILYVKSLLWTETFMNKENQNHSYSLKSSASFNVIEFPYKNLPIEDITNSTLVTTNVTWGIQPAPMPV
T1 sequence (P05106 27-718, chain 2 of 2): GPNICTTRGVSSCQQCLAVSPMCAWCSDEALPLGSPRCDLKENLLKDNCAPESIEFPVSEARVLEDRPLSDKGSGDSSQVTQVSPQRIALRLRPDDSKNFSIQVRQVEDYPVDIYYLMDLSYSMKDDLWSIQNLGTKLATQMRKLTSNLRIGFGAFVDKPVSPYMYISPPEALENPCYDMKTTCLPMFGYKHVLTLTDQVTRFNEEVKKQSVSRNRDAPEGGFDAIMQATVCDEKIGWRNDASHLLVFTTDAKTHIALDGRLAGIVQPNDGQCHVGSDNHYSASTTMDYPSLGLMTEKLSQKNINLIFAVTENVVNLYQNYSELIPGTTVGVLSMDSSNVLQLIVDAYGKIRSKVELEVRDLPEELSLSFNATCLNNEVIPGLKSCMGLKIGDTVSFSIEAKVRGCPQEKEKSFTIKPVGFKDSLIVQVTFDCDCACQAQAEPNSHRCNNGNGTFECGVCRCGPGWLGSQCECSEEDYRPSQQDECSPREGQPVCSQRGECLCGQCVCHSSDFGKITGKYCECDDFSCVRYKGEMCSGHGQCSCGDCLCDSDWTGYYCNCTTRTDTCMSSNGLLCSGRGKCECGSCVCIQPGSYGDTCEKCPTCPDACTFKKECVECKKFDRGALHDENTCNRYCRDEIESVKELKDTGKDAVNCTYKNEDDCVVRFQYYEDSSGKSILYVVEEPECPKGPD

B1: Clone #11 (S003-A4-011-T7_C02), full length (ssDNA)
DNA: TCAGCCGCCAGCCAGTTCTTTTAATCTTCTCTGTCAGATGGCTGGTAGGGTGTATGACGACCAGAGCACCACAGAG
modifications: n in core = 5-(N-benzylaminocarbonyl)-2'-deoxyuridine (BzdU) [n positions 19,20,21,22,25,27,28,30,32,34,39,43,46,51,53,55 = modified dU]
Kd (Integrin alpha-v beta-3 [1]): 38 nM

B2: Clone #25 (S003-A4-025-T7_A04), full length (ssDNA)
DNA: TCAGCCGCCAGCCAGTTCGTTTTAAGAAATTAGCACACCGTTGACTTGTTTAGTGGCGGACCAGAGCACCACAGAG
modifications: n in core = 5-(N-benzylaminocarbonyl)-2'-deoxyuridine (BzdU) [n positions 20,21,22,23,30,31,41,42,46,47,49,50,51,54 = modified dU]
Kd (Integrin alpha-v beta-3 [2]): 17.6 nM

B3: Clone #12 (S003-A4-012-T7_D02), full length (ssDNA)
DNA: TCAGCCGCCAGCCAGTTCAGTTGCCAATTTGCAGCCTAGGATACGTTTTCGAAACTGCAGACCAGAGCACCACAGAG
modifications: n in core = 5-(N-benzylaminocarbonyl)-2'-deoxyuridine (BzdU) [n positions 21,22,28,29,30,37,42,46,47,48,49,56 = modified dU]
Kd (Integrin alpha-v beta-3 [3]): 23.2 nM

B4: Clone #21 (S003-A4-021-T7_E03), full length (ssDNA)
DNA: TCAGCCGCCAGCCAGTTCCGAGGGAGTTATGGAGATTGTGTTGTTTAAGGTCGGAACTGACCAGAGCACCACAGAG
modifications: n in core = 5-(N-benzylaminocarbonyl)-2'-deoxyuridine (BzdU) [n positions 27,28,30,36,37,39,41,42,44,45,46,51,58 = modified dU]
Kd (Integrin alpha-v beta-3 [4]): 59 nM
